Measurements as given in patent publication US9388233.

Target: I-SceI mutants selected from G13/P14/N15/K20 saturation library (UniProt P03882)
Experiment: cell_activity
Conditions: first selection round, library pool; individual mutants not given

Sequence of UniProt P03882 (P03882 whole entry, change not shown): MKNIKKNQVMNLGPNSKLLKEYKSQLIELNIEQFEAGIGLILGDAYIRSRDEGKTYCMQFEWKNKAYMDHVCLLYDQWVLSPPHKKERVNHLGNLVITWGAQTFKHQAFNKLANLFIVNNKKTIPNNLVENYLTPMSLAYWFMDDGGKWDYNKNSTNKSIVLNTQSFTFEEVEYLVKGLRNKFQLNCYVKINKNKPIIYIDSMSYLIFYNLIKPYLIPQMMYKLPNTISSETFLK

TAGGGATAACAGGGGTCT (double strand) [T3i1]
activity (fold cell survival vs wild type): 10
